This passage reports Kd results from PMC2957522 (Journal of molecular biology, 2010).

The experiment addresses rabbit skeletal muscle actin (monomeric, Mg-εATP-actin) (rabbit, UniProt P68135 1-377). The experiment in a line: actin nucleotide exchange kinetics.

B1: Toxoplasma gondii profilin (TgPRF) (natural protein)
chain: MSDWDPVVKEWLVDTGYCCAGGIANAEDGVVFAAAADDDDGWSKLYKDDHEEDTIGEDGNACGKVSINEASTIKAAVDDGSAPNGVWIGGQKYKVVRPEKGFEYNDCTFDITMCARSKGGAHLIKTPNGSIVIALYDEEKEQDKGNSRTSALAFAEYLHQSGY
modifications: selenomethionine-substituted (level of selenium substitution essentially 100%)
Molecule B1 displayed a Kd of 13.9 ± 5 µM.

B2: TgPRF β-hairpin deletion mutant (ΔBH) (natural protein)
chain: MSDWDPVVKEWLVDTGYCCAGGIANAEDGVVFAAAADDDDGWSKLYKDDNEASTIKAAVDDGSAPNGVWIGGQKYKVVRPEKGFEYNDCTFDITMCARSKGGAHLIKTPNGSIVIALYDEEKEQDKGNSRTSALAFAEYLHQSGY
On to B2, for which the Kd is > 150 µM.

By Kd is commonly meant a measure of binding affinity in units of concentration.
